These results are taken from the supplement of paper PMC9112550, “Optimization of the antimicrobial peptide Bac7 by deep mutational scanning” (BMC Biology, 2022).

For this data set, the system named is Escherichia coli TOP10. The experiment in a line: shrunken log2 fold change of peptide-encoding DNA abundance (4.5 h post-induction vs induction); higher = less antimicrobial activity (less host growth inhibition). The note with it: time post-induction: 4.5 h; library: site-saturation at positions 5, 18, 19, 20.
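Note: peptides expressed intracellularly from a pBAD plasmid library in pooled LB shake-flask culture, induced with 0.3% L-arabinose, DNA abundance read by NGS, three biological replicates, DESeq2 with apeglm shrinkage.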

As for RRIRWRPPRLPRPRPRPYNPPRP, the “shrunken log2 fold change” value is -1.48. In the case of RRIRSRPPRLPRPRPRPDTEPRP, the “shrunken log2 fold change” value is -0.0911. For the sequence RRIRTRPPRLPRPRPRPGVHPRP, the “shrunken log2 fold change” value was -0.055. With RRIRQRPPRLPRPRPRPWAFPRP, the “shrunken log2 fold change” value is -0.000467. On to RRIRWRPPRLPRPRPRPIKVPRP, for which the “shrunken log2 fold change” value is -0.146. As for RRIRYRPPRLPRPRPRPPQCPRP, the “shrunken log2 fold change” value was -0.32. For RRIRARPPRLPRPRPRPHCEPRP, the “shrunken log2 fold change” value is -0.113. On to RRIRHRPPRLPRPRPRPGEEPRP, for which the “shrunken log2 fold change” value is 0.03.

For RRIRHRPPRLPRPRPRPWPYPRP, the “shrunken log2 fold change” value is -0.01. On to RRIRHRPPRLPRPRPRPEYTPRP, for which the “shrunken log2 fold change” value was -0.0512. Consider RRIRNRPPRLPRPRPRPRFDPRP, for which the “shrunken log2 fold change” value was determined as 0.0608. As to RRIRGRPPRLPRPRPRPILEPRP, the “shrunken log2 fold change” value was 0.229. Turning to RRIRKRPPRLPRPRPRPVGDPRP, the “shrunken log2 fold change” value came out at 0.247. As for RRIRSRPPRLPRPRPRPFHNPRP, the “shrunken log2 fold change” value was -0.0339. Consider RRIRYRPPRLPRPRPRPKIQPRP, for which the “shrunken log2 fold change” value is -0.68.

Regarding RRIRYRPPRLPRPRPRPFGWPRP, the “shrunken log2 fold change” value was found to be 0.102. As to RRIRMRPPRLPRPRPRPGFLPRP, the “shrunken log2 fold change” value came to 0.113. On to RRIRHRPPRLPRPRPRPNFSPRP, for which the “shrunken log2 fold change” value is -0.415.

Take RRIRKRPPRLPRPRPRPQWFPRP: the “shrunken log2 fold change” value was -0.185.

Regarding RRIRERPPRLPRPRPRPAWTPRP, the “shrunken log2 fold change” value turned out to be 0.0563. For RRIRHRPPRLPRPRPRPVFPPRP, the “shrunken log2 fold change” value was determined as 0.171.

As for RRIRPRPPRLPRPRPRPRPCPRP, the “shrunken log2 fold change” value came to 0.188.

Consider RRIRARPPRLPRPRPRPDEAPRP, for which the “shrunken log2 fold change” value came out at 1.12.

As for RRIRMRPPRLPRPRPRPSQFPRP, the “shrunken log2 fold change” value came to 0.379.

As for RRIRPRPPRLPRPRPRPSCKPRP, the “shrunken log2 fold change” value was -0.189. Next, RRIRHRPPRLPRPRPRPIIMPRP: -0.029; RRIRARPPRLPRPRPRPCHWPRP: -0.153.

Regarding RRIRNRPPRLPRPRPRPSIIPRP, the “shrunken log2 fold change” value is -0.856. With RRIRERPPRLPRPRPRPDRHPRP, the “shrunken log2 fold change” value is -0.0302. As for RRIRFRPPRLPRPRPRPADWPRP, the “shrunken log2 fold change” value was 0.36. Regarding RRIRLRPPRLPRPRPRPPLNPRP, the “shrunken log2 fold change” value was 0.0486. For RRIRDRPPRLPRPRPRPTSEPRP, the “shrunken log2 fold change” value worked out at 0.236. For RRIRARPPRLPRPRPRPCTDPRP, the “shrunken log2 fold change” value is -0.0325. Take RRIRHRPPRLPRPRPRPGPHPRP: the “shrunken log2 fold change” value was -0.14. Next, RRIRRRPPRLPRPRPRPYGTPRP: -0.231; RRIRYRPPRLPRPRPRPIMGPRP: -0.0134. Next, RRIRIRPPRLPRPRPRPFYGPRP: 0.0259; RRIRHRPPRLPRPRPRPYDYPRP: -0.276; RRIRLRPPRLPRPRPRPSATPRP: 0.321.

RRIRCRPPRLPRPRPRPQRRPRP: the “shrunken log2 fold change” value is -0.023. Next, RRIRIRPPRLPRPRPRPNQTPRP: -0.00271; RRIRMRPPRLPRPRPRPKACPRP: 0.558; RRIRERPPRLPRPRPRPPRHPRP: 0.0414. RRIRERPPRLPRPRPRPPGPPRP: the “shrunken log2 fold change” value was determined as 0.478. For the sequence RRIRERPPRLPRPRPRPDSQPRP, the “shrunken log2 fold change” value was -0.0262.

Take RRIRKRPPRLPRPRPRPKQVPRP: the “shrunken log2 fold change” value is -0.176.

For the sequence RRIRRRPPRLPRPRPRPVSAPRP, the “shrunken log2 fold change” value turned out to be 0.588. RRIRYRPPRLPRPRPRPHLYPRP: the “shrunken log2 fold change” value was -1.35. On to RRIRRRPPRLPRPRPRPPDGPRP, for which the “shrunken log2 fold change” value came to 0.326.

For the sequence RRIRERPPRLPRPRPRPTGFPRP, the “shrunken log2 fold change” value is -0.00436. With RRIRLRPPRLPRPRPRPCQCPRP, the “shrunken log2 fold change” value was -0.672.

As to RRIRLRPPRLPRPRPRPRKVPRP, the “shrunken log2 fold change” value came to 0.0909. With RRIRERPPRLPRPRPRPSNFPRP, the “shrunken log2 fold change” value is -0.909. In the case of RRIRGRPPRLPRPRPRPVQFPRP, the “shrunken log2 fold change” value stood at 0.535.

With RRIRCRPPRLPRPRPRPGGQPRP, the “shrunken log2 fold change” value was -0.218.

For RRIRVRPPRLPRPRPRPNMMPRP, the “shrunken log2 fold change” value was -0.248.

For the sequence RRIRKRPPRLPRPRPRPMMNPRP, the “shrunken log2 fold change” value turned out to be 0.154.

Turning to RRIRARPPRLPRPRPRPKSGPRP, the “shrunken log2 fold change” value was found to be 0.166.

As for RRIRGRPPRLPRPRPRPMTCPRP, the “shrunken log2 fold change” value is 0.133.

Turning to RRIRFRPPRLPRPRPRPIEDPRP, the “shrunken log2 fold change” value was -0.461. RRIRPRPPRLPRPRPRPQQGPRP: the “shrunken log2 fold change” value amounted to 0.14. Take RRIRNRPPRLPRPRPRPVIWPRP: the “shrunken log2 fold change” value was -0.112.

For RRIRIRPPRLPRPRPRPPKQPRP, the “shrunken log2 fold change” value is -0.158.

Turning to RRIRMRPPRLPRPRPRPRKNPRP, the “shrunken log2 fold change” value came to 0.433. With RRIRPRPPRLPRPRPRPCYPPRP, the “shrunken log2 fold change” value is -0.301. For RRIRYRPPRLPRPRPRPDTNPRP, the “shrunken log2 fold change” value is -0.0185.

RRIRGRPPRLPRPRPRPLGWPRP: the “shrunken log2 fold change” value was 1.27. For the sequence RRIRFRPPRLPRPRPRPGCDPRP, the “shrunken log2 fold change” value was 0.106. The figure for RRIRHRPPRLPRPRPRPAQTPRP is -0.1; for RRIRERPPRLPRPRPRPHVHPRP it is -0.315; for RRIRMRPPRLPRPRPRPQCWPRP it is 0.14. For the sequence RRIRSRPPRLPRPRPRPGDSPRP, the “shrunken log2 fold change” value is -0.0926. Next, RRIRDRPPRLPRPRPRPIGDPRP: -0.00843.

Turning to RRIRVRPPRLPRPRPRPRWLPRP, the “shrunken log2 fold change” value turned out to be 0.211.

As for RRIRPRPPRLPRPRPRPEAKPRP, the “shrunken log2 fold change” value stood at 1.03.

For RRIRHRPPRLPRPRPRPVEGPRP, the “shrunken log2 fold change” value is 0.105. With RRIRNRPPRLPRPRPRPYGLPRP, the “shrunken log2 fold change” value was -0.106. With RRIRQRPPRLPRPRPRPAKEPRP, the “shrunken log2 fold change” value is -0.0803. As for RRIRWRPPRLPRPRPRPDLFPRP, the “shrunken log2 fold change” value came to 0.133. On to RRIRLRPPRLPRPRPRPLEFPRP, for which the “shrunken log2 fold change” value was -0.252. RRIRMRPPRLPRPRPRPRNWPRP: the “shrunken log2 fold change” value was 0.788. Take RRIRLRPPRLPRPRPRPENEPRP: the “shrunken log2 fold change” value is -0.0211.

With RRIRTRPPRLPRPRPRPFAGPRP, the “shrunken log2 fold change” value was -0.0338. With RRIRWRPPRLPRPRPRPTQGPRP, the “shrunken log2 fold change” value amounted to 0.533. As to RRIRSRPPRLPRPRPRPVILPRP, the “shrunken log2 fold change” value was -0.0746. As for RRIRFRPPRLPRPRPRPPYRPRP, the “shrunken log2 fold change” value worked out at 0.0239.

Regarding RRIRVRPPRLPRPRPRPHAWPRP, the “shrunken log2 fold change” value amounted to 0.0267. On to RRIRTRPPRLPRPRPRPDYAPRP, for which the “shrunken log2 fold change” value was 0.0553. For the sequence RRIRMRPPRLPRPRPRPIRCPRP, the “shrunken log2 fold change” value is 0.086. With RRIRIRPPRLPRPRPRPKHAPRP, the “shrunken log2 fold change” value is -0.126. For the sequence RRIRSRPPRLPRPRPRPHWPPRP, the “shrunken log2 fold change” value worked out at 0.341. In the case of RRIRIRPPRLPRPRPRPCGTPRP, the “shrunken log2 fold change” value was -0.00435. For the sequence RRIRWRPPRLPRPRPRPKEGPRP, the “shrunken log2 fold change” value amounted to 0.538. Turning to RRIRPRPPRLPRPRPRPSCCPRP, the “shrunken log2 fold change” value is -0.0575. Take RRIRIRPPRLPRPRPRPMNNPRP: the “shrunken log2 fold change” value was -0.465. The figure for RRIRERPPRLPRPRPRPETSPRP is 0.122; for RRIRMRPPRLPRPRPRPKYTPRP it is 0.169; for RRIRGRPPRLPRPRPRPAVWPRP it is 0.71. Take RRIRRRPPRLPRPRPRPPEVPRP: the “shrunken log2 fold change” value is 0.821. For RRIRQRPPRLPRPRPRPILPPRP, the “shrunken log2 fold change” value came to 0.0747. As for RRIRERPPRLPRPRPRPDKPPRP, the “shrunken log2 fold change” value was -0.051. Next, RRIRHRPPRLPRPRPRPAVRPRP: -0.273.

On to RRIRHRPPRLPRPRPRPVMGPRP, for which the “shrunken log2 fold change” value turned out to be 0.0268. The figure for RRIRWRPPRLPRPRPRPSNQPRP is -0.561; for RRIRKRPPRLPRPRPRPFHLPRP it is 0.0215. In the case of RRIRWRPPRLPRPRPRPQTRPRP, the “shrunken log2 fold change” value stood at 0.122. Turning to RRIRHRPPRLPRPRPRPFEFPRP, the “shrunken log2 fold change” value was -0.0195. RRIRGRPPRLPRPRPRPKPPPRP: the “shrunken log2 fold change” value was 2.28. Regarding RRIRVRPPRLPRPRPRPVNKPRP, the “shrunken log2 fold change” value is -0.186. As to RRIRVRPPRLPRPRPRPNMQPRP, the “shrunken log2 fold change” value is -0.33. Regarding RRIRGRPPRLPRPRPRPGGAPRP, the “shrunken log2 fold change” value was found to be 1. Take RRIRCRPPRLPRPRPRPPRQPRP: the “shrunken log2 fold change” value is 0.589.

In the case of RRIRYRPPRLPRPRPRPRDVPRP, the “shrunken log2 fold change” value is -0.0023. For RRIRKRPPRLPRPRPRPHAKPRP, the “shrunken log2 fold change” value was 0.226. For RRIRHRPPRLPRPRPRPIKTPRP, the “shrunken log2 fold change” value is -0.00476. In the case of RRIRWRPPRLPRPRPRPEIIPRP, the “shrunken log2 fold change” value amounted to 0.231. RRIRTRPPRLPRPRPRPNLSPRP: the “shrunken log2 fold change” value is 0.00227. Consider RRIRCRPPRLPRPRPRPWHMPRP, for which the “shrunken log2 fold change” value was -0.119.

For RRIRFRPPRLPRPRPRPCQQPRP, the “shrunken log2 fold change” value was found to be 0.0307. Consider RRIRARPPRLPRPRPRPQQMPRP, for which the “shrunken log2 fold change” value stood at 0.12.

Regarding RRIRWRPPRLPRPRPRPDQWPRP, the “shrunken log2 fold change” value was 0.399.

In the case of RRIRARPPRLPRPRPRPSSQPRP, the “shrunken log2 fold change” value was 0.144. Next, RRIRARPPRLPRPRPRPWENPRP: 0.0143; RRIRHRPPRLPRPRPRPTLMPRP: -0.0715. The figure for RRIRCRPPRLPRPRPRPIEFPRP is 0.191.
